Series [1] addresses human p300BRP (residues 1048–1282), 4A-substituted mutant (R1133A, K1134A, R1137A, K1140A) (human) (UniProt Q09472). The series is described as follows: MST; p300BRP fluorescently labeled (His tag Labeling Kit), 2-fold serial dilutions of 180-bp nucleosome; 10 mM HEPES-NaOH pH 7.4, 150 mM NaCl, 0.05% Tween-20; 25 °C; Hill equation, half-saturation concentration (K1/2).
The target of series [2] is human p300BRP (residues 1048–1282), wild type (human) (UniProt Q09472). The series is described as above.
The target in series [3] is human p300BRP (residues 1048–1282), 4A-substituted mutant (R1133A, K1134A, R1137A, K1140A) (human) (UniProt Q09472). The series is described as follows: MST; as a2, but p300BRP incubated beforehand with 10 μM CBP30 (inhibitor of the bromodomain pocket) for at least 20 min.
Series [4] addresses human p300BRP (residues 1048–1282), wild type (human) (UniProt Q09472). The series is described as above.
For series [5], the system named is p300 BRP wild-type (Homo sapiens). As to the kind of experiment: MST. Particulars: human octamer H2A type 1-B/E, H2B type 1-J, MST and cryo-EM sample buffers not in the material, MST 10 µM CBP30 where stated.
Series [6] deals with p300 BRP 4A (Homo sapiens). The series is described as follows: MST. Particulars: human octamer H2A type 1-B/E, H2B type 1-J, MST and cryo-EM sample buffers not in the material, MST 10 µM CBP30 where stated.
Series [7] deals with Histone H4 K8ac/K12ac (Homo sapiens) (UniProt P62805). Particulars: cited from earlier work.
Series [8] concerns the target Histone H4 K12ac/K16ac (Homo sapiens) (UniProt P62805). Particulars: cited from earlier work.
[9] abbreviates: no CBP30, H3.1, H4 with K12ac/K16ac.

Sequence of human p300BRP (residues 1048–1282), wild type (human) (Q09472 1048-1282): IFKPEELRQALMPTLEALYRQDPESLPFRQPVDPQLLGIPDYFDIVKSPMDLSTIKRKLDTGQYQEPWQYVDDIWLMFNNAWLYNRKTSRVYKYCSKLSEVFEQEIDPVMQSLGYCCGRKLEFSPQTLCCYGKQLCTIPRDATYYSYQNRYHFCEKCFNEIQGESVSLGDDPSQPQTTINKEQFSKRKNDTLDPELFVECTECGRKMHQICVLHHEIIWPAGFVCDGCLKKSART
Sequence of human p300BRP (residues 1048–1282), 4A-substituted mutant (R1133A, K1134A, R1137A, K1140A) (human) (Q09472 1048-1282 R1133A/K1134A/R1137A/K1140A): as the sequence (Q09472 1048-1282) above, with R86A, K87A, R90A, K93A counted along it

For the substance “180-bp nucleosome having H4K12ac/K16ac (H4acNuc) (from UniProt P04908 1-130; P68431 1-136; P62805 1-103) (complex)”, the K1/2 (half-saturation concentration) was determined as 1.8 nM in series [1] and 0.35 nM in series [2]. Besides, the K1/2 (half-saturation concentration) after incubation with CBP30 was 3.5 nM in series [3] and 1.2 nM in series [4].

In series [2], “180-bp unmodified nucleosome (from UniProt P04908 1-130; P68431 1-136; P62805 1-103) (complex)” yielded a K1/2 (half-saturation concentration) of 2.2 nM.

For H4acNuc (180-bp, H4K12ac/K16ac), the K half in series [5] (H3.1, H4 with K12ac/K16ac) was 1.2 nM; in series [5] (setting [9]) it was 0.35 nM; in series [6] (H3.1, H4 with K12ac/K16ac), 3.5 nM; in series [6] (setting [9]), 1.8 nM.

Regarding “p300/CBP bromodomain bromodomain (from UniProt Q09472)”, the Kd in series [7] was 90 µM; in series [8], 25 µM.

On to unmodified 180-bp nucleosome, for which the K half turned out to be 2.2 nM in series [5] (no CBP30, H3.1, H4, unmodified) and 7.3 nM in series [6] (no CBP30, H3.1, H4, unmodified).

Source of the values: publication PMC10352329.
